One block for each binder: values may come before it.
What was measured:
Assay in all cases: holdup assay
Set-up in all cases: key: below the threshold = too weak to quantify, mostly under pKd 3.1 to 4
MAGI1_1, Q96QZ7 = molecular target: MAGI1_1, Q96QZ7
CARD11, Q9BXL7 = molecular target: T1, CARD11, Q9BXL7
T1 sequence (Q9BXL7 662-765, limits assumed, looked up): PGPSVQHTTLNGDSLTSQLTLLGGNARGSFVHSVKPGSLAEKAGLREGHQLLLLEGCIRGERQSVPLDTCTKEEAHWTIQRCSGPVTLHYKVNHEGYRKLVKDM

LNX1_2, Q8TBB1 = molecular target: LNX1_2, Q8TBB1
LNX1_2, Q8TBB1, sequence (Q8TBB1 371-470): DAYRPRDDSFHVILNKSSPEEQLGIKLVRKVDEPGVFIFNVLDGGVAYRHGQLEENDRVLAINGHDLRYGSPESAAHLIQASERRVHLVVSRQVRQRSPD

PDLIM1, O00151 = molecular target: PDLIM1, O00151
PDLIM1, O00151, sequence (O00151 1-87): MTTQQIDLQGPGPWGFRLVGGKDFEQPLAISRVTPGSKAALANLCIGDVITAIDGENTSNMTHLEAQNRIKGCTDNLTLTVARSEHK

GRIP1_7, Q9Y3R0 = molecular target: T2, GRIP1_7, Q9Y3R0
T2 sequence (Q9Y3R0 999-1096, limits assumed, looked up): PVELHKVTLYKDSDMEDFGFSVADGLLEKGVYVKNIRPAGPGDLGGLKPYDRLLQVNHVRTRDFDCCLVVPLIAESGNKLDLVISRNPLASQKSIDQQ

MAGI2_2, Q86UL8 = molecular target: MAGI2_2, Q86UL8
MAGI2_2, Q86UL8, sequence (Q86UL8 410-522): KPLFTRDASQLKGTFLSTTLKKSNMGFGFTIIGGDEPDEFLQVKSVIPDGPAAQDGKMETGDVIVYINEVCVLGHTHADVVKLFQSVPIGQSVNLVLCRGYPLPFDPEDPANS

IL16_1, Q14005 = molecular target: IL16_1, Q14005
IL16_1, Q14005, sequence (Q14005 210-306): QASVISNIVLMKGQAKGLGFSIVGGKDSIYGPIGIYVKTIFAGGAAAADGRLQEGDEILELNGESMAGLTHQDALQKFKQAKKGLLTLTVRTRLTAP

GRID2IP_2, A4D2P6 = molecular target: GRID2IP_2, A4D2P6
GRID2IP_2, A4D2P6, sequence (A4D2P6 272-370): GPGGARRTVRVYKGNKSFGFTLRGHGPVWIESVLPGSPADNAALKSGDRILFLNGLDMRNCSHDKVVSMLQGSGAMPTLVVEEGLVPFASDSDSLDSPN

APBA2_2, Q99767 = molecular target: T3, APBA2_2, Q99767
T3 sequence (Q99767 654-744, limits assumed, looked up): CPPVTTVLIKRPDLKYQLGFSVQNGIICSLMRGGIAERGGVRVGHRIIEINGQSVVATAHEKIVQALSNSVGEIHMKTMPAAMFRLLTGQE

GRIP2_4, Q9C0E4 = molecular target: GRIP2_4, Q9C0E4
GRIP2_4, Q9C0E4, sequence (Q9C0E4 446-548): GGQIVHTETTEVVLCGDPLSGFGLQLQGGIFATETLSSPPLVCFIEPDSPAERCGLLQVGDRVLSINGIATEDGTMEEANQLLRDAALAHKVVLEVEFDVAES

LIMK2, P53671 = molecular target: LIMK2, P53671
LIMK2, P53671, sequence (P53671 143-248): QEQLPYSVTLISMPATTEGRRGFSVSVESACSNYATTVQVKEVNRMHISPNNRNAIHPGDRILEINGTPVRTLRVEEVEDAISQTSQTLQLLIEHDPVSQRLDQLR

Inadl_9, Q8NI35 = molecular target: Inadl_9, Q8NI35
Inadl_9, Q8NI35, sequence (Q8NI35 1530-1615): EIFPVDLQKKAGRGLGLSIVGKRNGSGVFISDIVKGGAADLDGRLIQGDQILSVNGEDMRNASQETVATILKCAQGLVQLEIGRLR

MPDZ_12, O75970 = molecular target: T4, MPDZ_12, O75970
T4 sequence (O75970 1857-1958, limits assumed, looked up): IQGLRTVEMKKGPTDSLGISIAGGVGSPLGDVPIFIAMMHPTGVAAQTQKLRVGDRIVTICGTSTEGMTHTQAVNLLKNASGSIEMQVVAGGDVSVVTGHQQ

SIPA1L2, Q9P2F8 = molecular target: T5, SIPA1L2, Q9P2F8
T5 sequence (Q9P2F8 945-1036, limits assumed, looked up): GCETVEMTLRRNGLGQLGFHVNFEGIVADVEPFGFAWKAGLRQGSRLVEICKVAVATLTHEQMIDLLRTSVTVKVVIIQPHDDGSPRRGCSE

NHERF4_4, Q86UT5 = molecular target: NHERF4_4, Q86UT5
NHERF4_4, Q86UT5, sequence (Q86UT5 464-550): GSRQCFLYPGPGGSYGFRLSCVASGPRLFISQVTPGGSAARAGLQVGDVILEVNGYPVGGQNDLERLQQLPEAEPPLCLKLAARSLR

DFNB31_1, Q9P202 = molecular target: T6, DFNB31_1, Q9P202
T6 sequence (Q9P202 135-233, limits assumed, looked up): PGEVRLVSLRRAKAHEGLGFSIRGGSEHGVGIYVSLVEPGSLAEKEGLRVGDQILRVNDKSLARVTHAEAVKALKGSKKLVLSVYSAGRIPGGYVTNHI

ARHGEF12, Q9NZN5-2 = molecular target: ARHGEF12, Q9NZN5-2
ARHGEF12, Q9NZN5-2, sequence (Q9NZN5 other isoform, or with tags, fused parts or gaps): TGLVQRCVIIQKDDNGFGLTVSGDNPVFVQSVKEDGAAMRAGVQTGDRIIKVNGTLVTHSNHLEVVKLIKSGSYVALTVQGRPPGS

MAGI2_5, Q86UL8 = molecular target: MAGI2_5, Q86UL8
MAGI2_5, Q86UL8, sequence (Q86UL8 915-1017): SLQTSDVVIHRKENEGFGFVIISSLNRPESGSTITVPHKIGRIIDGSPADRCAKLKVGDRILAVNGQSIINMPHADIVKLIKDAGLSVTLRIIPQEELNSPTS

NHERF3_3, Q5T2W1 = molecular target: T7, NHERF3_3, Q5T2W1
T7 sequence (Q5T2W1 238-333, limits assumed, looked up): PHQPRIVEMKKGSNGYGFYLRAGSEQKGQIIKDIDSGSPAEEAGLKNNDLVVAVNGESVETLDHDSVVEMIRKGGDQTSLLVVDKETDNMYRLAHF

GRID2IP_1, A4D2P6 = molecular target: GRID2IP_1, A4D2P6
GRID2IP_1, A4D2P6, sequence (A4D2P6 1-87): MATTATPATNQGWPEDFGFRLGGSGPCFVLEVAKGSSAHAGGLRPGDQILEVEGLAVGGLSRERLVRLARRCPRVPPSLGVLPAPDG

Inadl_6, Q8NI35 = molecular target: Inadl_6, Q8NI35
Inadl_6, Q8NI35, sequence (Q8NI35 1058-1167): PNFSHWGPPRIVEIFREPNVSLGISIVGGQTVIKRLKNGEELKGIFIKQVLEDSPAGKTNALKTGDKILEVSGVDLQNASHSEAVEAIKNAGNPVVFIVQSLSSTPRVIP

CASK, O14936 = molecular target: CASK, O14936
CASK, O14936, sequence (O14936 487-570): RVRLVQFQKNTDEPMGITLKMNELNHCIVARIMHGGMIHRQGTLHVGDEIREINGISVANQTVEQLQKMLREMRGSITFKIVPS

GRIP1_3, Q9Y3R0 = molecular target: T8, GRIP1_3, Q9Y3R0
T8 sequence (Q9Y3R0 247-346, limits assumed, looked up): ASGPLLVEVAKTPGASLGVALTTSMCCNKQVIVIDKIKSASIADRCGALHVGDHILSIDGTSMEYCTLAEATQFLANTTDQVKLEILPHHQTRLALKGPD

LNX2_3, Q8N448 = molecular target: T9, LNX2_3, Q8N448
T9 sequence (Q8N448 463-564, limits assumed, looked up): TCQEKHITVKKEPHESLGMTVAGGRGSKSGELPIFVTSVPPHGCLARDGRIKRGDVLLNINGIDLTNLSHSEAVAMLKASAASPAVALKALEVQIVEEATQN

FRMPD2_2, Q68DX3 = molecular target: FRMPD2_2, Q68DX3
FRMPD2_2, Q68DX3, sequence (Q68DX3 944-1038): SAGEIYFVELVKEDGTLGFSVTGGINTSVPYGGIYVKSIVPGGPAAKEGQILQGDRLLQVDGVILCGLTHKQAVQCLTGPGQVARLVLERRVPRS

GRIP1_2, Q9Y3R0 = molecular target: T10, GRIP1_2, Q9Y3R0
T10 sequence (Q9Y3R0 145-248, limits assumed, looked up): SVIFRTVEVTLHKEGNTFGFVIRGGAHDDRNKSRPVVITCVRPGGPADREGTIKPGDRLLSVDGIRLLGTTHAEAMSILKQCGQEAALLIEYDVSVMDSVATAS

RADIL, Q96JH8 = molecular target: T11, RADIL, Q96JH8
T11 sequence (Q96JH8 971-1071, limits assumed, looked up): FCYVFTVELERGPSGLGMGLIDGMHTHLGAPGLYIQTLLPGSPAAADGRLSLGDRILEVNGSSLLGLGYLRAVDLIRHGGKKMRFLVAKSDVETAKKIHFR

[1] = plain residues with an end cap or a label only (N-terminal biotin on a linker: ttds)
[2] = plain residues with an end cap or a label only (N-terminal biotin on a linker: ahx)
[3] = plain residues with an end cap or a label only (N-terminal biotin on a linker: ado-ado)

MAGI1_1, Q96QZ7, sequence (Q96QZ7 1-106): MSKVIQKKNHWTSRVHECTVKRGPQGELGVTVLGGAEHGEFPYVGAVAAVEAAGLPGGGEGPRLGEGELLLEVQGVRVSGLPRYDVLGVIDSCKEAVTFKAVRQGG

- pKd (MAGI1_1, Q96QZ7; [1]): below the threshold
- pKd (CARD11, Q9BXL7; [1]): below the threshold
- pKd (LNX1_2, Q8TBB1; [1]): below the threshold
- pKd (PDLIM1, O00151; [1]): 4.16
- pKd (GRIP1_7, Q9Y3R0; [1]): 3.63
- pKd (MAGI2_2, Q86UL8; [1]): below the threshold
- pKd (IL16_1, Q14005; [1]): below the threshold
- pKd (GRID2IP_2, A4D2P6; [1]): below the threshold
- pKd (APBA2_2, Q99767; [1]): below the threshold
- pKd (GRIP2_4, Q9C0E4; [1]): below the threshold
- pKd (LIMK2, P53671; [1]): below the threshold
- pKd (Inadl_9, Q8NI35; [1]): below the threshold
- pKd (MPDZ_12, O75970; [1]): below the threshold
- pKd (SIPA1L2, Q9P2F8; [1]): below the threshold
- pKd (NHERF4_4, Q86UT5; [1]): 4.04
- pKd (DFNB31_1, Q9P202; [1]): 4.28
- pKd (ARHGEF12, Q9NZN5-2; [1]): 4.2
- pKd (MAGI2_5, Q86UL8; [1]): below the threshold
- pKd (NHERF3_3, Q5T2W1; [1]): below the threshold
- pKd (GRID2IP_1, A4D2P6; [1]): below the threshold
- pKd (Inadl_6, Q8NI35; [1]): 4.13
- pKd (CASK, O14936; [1]): below the threshold
- pKd (GRIP1_3, Q9Y3R0; [1]): below the threshold
- pKd (LNX2_3, Q8N448; [1]): below the threshold
- pKd (FRMPD2_2, Q68DX3; [1]): below the threshold
- pKd (GRIP1_2, Q9Y3R0; [1]): below the threshold
- pKd (RADIL, Q96JH8; [1]): below the threshold
B1: CTNNB1, P35222 (peptide)
chain: NQLAWFDTDL

- pKd (MAGI1_1, Q96QZ7; [2]): below the threshold
- pKd (CARD11, Q9BXL7; [2]): below the threshold
- pKd (LNX1_2, Q8TBB1; [2]): below the threshold
- pKd (PDLIM1, O00151; [2]): 3.63
- pKd (GRIP1_7, Q9Y3R0; [2]): below the threshold
- pKd (MAGI2_2, Q86UL8; [2]): below the threshold
- pKd (IL16_1, Q14005; [2]): below the threshold
- pKd (GRID2IP_2, A4D2P6; [2]): 4.16
- pKd (APBA2_2, Q99767; [2]): below the threshold
- pKd (GRIP2_4, Q9C0E4; [2]): below the threshold
- pKd (LIMK2, P53671; [2]): below the threshold
- pKd (Inadl_9, Q8NI35; [2]): below the threshold
- pKd (MPDZ_12, O75970; [2]): 3.54
- pKd (SIPA1L2, Q9P2F8; [2]): below the threshold
- pKd (NHERF4_4, Q86UT5; [2]): below the threshold
- pKd (DFNB31_1, Q9P202; [2]): below the threshold
- pKd (ARHGEF12, Q9NZN5-2; [2]): below the threshold
- pKd (MAGI2_5, Q86UL8; [2]): below the threshold
- pKd (NHERF3_3, Q5T2W1; [2]): below the threshold
- pKd (GRID2IP_1, A4D2P6; [2]): below the threshold
- pKd (Inadl_6, Q8NI35; [2]): 4.1
- pKd (CASK, O14936; [2]): below the threshold
- pKd (GRIP1_3, Q9Y3R0; [2]): below the threshold
- pKd (LNX2_3, Q8N448; [2]): below the threshold
- pKd (FRMPD2_2, Q68DX3; [2]): 3.58
- pKd (GRIP1_2, Q9Y3R0; [2]): below the threshold
- pKd (RADIL, Q96JH8; [2]): 4.45
B2: LNX1, Q8TBB1 (peptide)
chain: TIVSWPGTFL

- pKd (MAGI1_1, Q96QZ7; [3]): below the threshold
- pKd (CARD11, Q9BXL7; [3]): below the threshold
- pKd (LNX1_2, Q8TBB1; [3]): below the threshold
- pKd (PDLIM1, O00151; [3]): below the threshold
- pKd (GRIP1_7, Q9Y3R0; [3]): below the threshold
- pKd (MAGI2_2, Q86UL8; [3]): 3.96
- pKd (IL16_1, Q14005; [3]): below the threshold
- pKd (GRID2IP_2, A4D2P6; [3]): 3.83
- pKd (APBA2_2, Q99767; [3]): below the threshold
- pKd (GRIP2_4, Q9C0E4; [3]): below the threshold
- pKd (LIMK2, P53671; [3]): below the threshold
- pKd (Inadl_9, Q8NI35; [3]): below the threshold
- pKd (MPDZ_12, O75970; [3]): below the threshold
- pKd (SIPA1L2, Q9P2F8; [3]): below the threshold
- pKd (NHERF4_4, Q86UT5; [3]): 3.76
- pKd (DFNB31_1, Q9P202; [3]): 4.33
- pKd (ARHGEF12, Q9NZN5-2; [3]): 3.92
- pKd (MAGI2_5, Q86UL8; [3]): below the threshold
- pKd (NHERF3_3, Q5T2W1; [3]): below the threshold
- pKd (GRID2IP_1, A4D2P6; [3]): below the threshold
- pKd (Inadl_6, Q8NI35; [3]): below the threshold
- pKd (CASK, O14936; [3]): below the threshold
- pKd (GRIP1_3, Q9Y3R0; [3]): below the threshold
- pKd (LNX2_3, Q8N448; [3]): below the threshold
- pKd (FRMPD2_2, Q68DX3; [3]): below the threshold
- pKd (GRIP1_2, Q9Y3R0; [3]): below the threshold
- pKd (RADIL, Q96JH8; [3]): below the threshold
B3: ACOT6, Q3I5F7 (peptide)
chain: GKKSVKHSKI
